Measured values reported in article PMC5015959, “The Binding of Plasmodium falciparum Adhesins and Erythrocyte Invasion Proteins to Aldolase Is Enhanced by Phosphorylation” (PLoS ONE, 2016).
Where a SMILES comes first, the peptide text is derived from it. Where no end group is shown, it is not given here. [ ]: non-standard residue; d: D form. The star is where a group is joined. Biotin = O=C1N[C@H]2[C@H](CS[C@H]2CCCCC(=O)*)N1; pT = C[C@@H](OP(=O)(O)O)[C@H](N)C(=O)O; pS = N[C@@H](COP(=O)(O)O)C(=O)O

T1: P. falciparum aldolase (P. falciparum, UniProt Q7KQL9 1-369)
T1 construct: also called fructose 1,6-bisphosphate aldolase; parasite aldolase; source: prepared as described previously [42]
T1 sequence (looked up): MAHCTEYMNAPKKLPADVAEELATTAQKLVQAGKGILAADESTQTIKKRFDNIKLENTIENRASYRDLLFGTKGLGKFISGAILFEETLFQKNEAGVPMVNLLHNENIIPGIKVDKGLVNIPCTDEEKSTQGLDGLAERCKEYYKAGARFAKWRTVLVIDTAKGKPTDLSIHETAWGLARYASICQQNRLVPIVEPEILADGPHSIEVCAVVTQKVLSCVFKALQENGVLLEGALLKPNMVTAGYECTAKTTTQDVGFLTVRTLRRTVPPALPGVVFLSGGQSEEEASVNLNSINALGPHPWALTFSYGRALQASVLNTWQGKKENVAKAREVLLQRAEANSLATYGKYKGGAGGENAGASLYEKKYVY

B1: EBA181 CTD (1511–1567) (peptide)
peptide: Biotin-RKNLDDEKGFYDSNLNDSAFEYNNNKYNKLPYMFDQQINVVNSDLYSEGIYDDTTTF
notes: also called EBA181 unmodified; source: synthetic peptide; bought: Biomatik, USA
B2: MTRAP full length CTD (452–498), synthetic biotinylated peptide (peptide)
peptide: Biotin-YFLRKEKTEKVVQEETKEENFEVMFNDDALKGKDNKAMDEEEFWALE
notes: source: synthetic peptide; bought: Biomatik, USA
B3: MTRAP CTD short C-terminal peptide (printed residues 479–498) (peptide)
peptide: Biotin-ALKGKDNKAMDEEEFWALE
notes: as for B2
B4: EBA140 CTD (1155–1210) (peptide)
peptide: Biotin-RMGKSNEEYDIGESNIEATFEENNYLNKLSRIFNQEVQETNISDYSEYNYNEKNMY
notes: also called EBA140 unmodified; source: synthetic peptide; bought: Biomatik, USA
B5: RH4 CTD (1650–1716) (peptide)
peptide: Biotin-KNSNEPHHIFNIFQKEFSEADNAHSEEKEEYLPVYFDEVEDEVEDEVEDEDENENEVENENEDFNDI
notes: also called RH4 unmodified; source: synthetic peptide; bought: Biomatik, USA
B6: RH2B CTD (3211–3254) (peptide)
peptide: Biotin-DRSNKDECDFDMCEEVNNNDHLSNYADKEEIIEIVFDENEEKYF
modifications: cysteine pairing not given here
notes: also called RH2B unmodified; source: synthetic peptide; bought: Biomatik, USA
B7: AMA1 full length CTD (567–622) (peptide)
peptide: Biotin-YKRKGNAEKYDKMDEPQDYGKSNSRNDEMLDPEASFWGEEKRASHTTPVLMEKPYY
notes: as for B2
B8: TRAP full length CTD (530–574) (peptide)
peptide: Biotin-YKFVVPGAATPYAGEPAPFDETLGEEDKDLDEPEQFRLPEENEWN
notes: as for B2
B9: EBA175 CTD (1445–1502) (peptide)
peptide: Biotin-KYQSSEGVMNENNENNFLFEVTDNLDKLSNMFNQQVQETNINDFSEYHEDINDINFKK
notes: also called EBA175 unmodified; source: synthetic peptide; bought: Biomatik, USA
B10: EBA181 CTD phosphorylated at S1523 and S1528 (peptide)
peptide: Biotin-RKNLDDEKGFYD[pS]NLND[pS]AFEYNNNKYNKLPYMFDQQINVVNSDLYSEGIYDDTTTF
notes: source: phosphorylated synthetic peptide (Biomatik) or peptide phosphorylated in vitro
B11: EBA140 CTD, phosphorylated (peptide)
peptide: Biotin-RMGKSNEEYDIGESNIEATFEENNYLNKLSRIFNQEVQETNISDYSEYNYNEKNMY
modifications: also: phosphorylated, exact sites not determined
notes: also called EBA140 phosphorylated; source: phosphorylated synthetic peptide (Biomatik) or peptide phosphorylated in vitro
B12: RH4 CTD phosphorylated at S1667 or S1674 (peptide)
peptide: Biotin-KNSNEPHHIFNIFQKEFSEADNAHSEEKEEYLPVYFDEVEDEVEDEVEDEDENENEVENENEDFNDI
modifications: also: one phosphate at either Ser1667 (pos 18) or Ser1674 (pos 25)
notes: as for B10
B13: RH2B CTD phosphorylated at S3233 (peptide)
peptide: Biotin-DRSNKDECDFDMCEEVNNNDHL[pS]NYADKEEIIEIVFDENEEKYF
modifications: cysteine pairing not given here
notes: as for B10
B14: MTRAP CTD phosphorylated at Thr-459 (peptide)
peptide: Biotin-YFLRKEK[pT]EKVVQEETKEENFEVMFNDDALKGKDNKAMDEEEFWALE
notes: as for B10
B15: MTRAP CTD phosphorylated at Thr-459 and Thr-467 (peptide)
peptide: Biotin-YFLRKEK[pT]EKVVQEE[pT]KEENFEVMFNDDALKGKDNKAMDEEEFWALE
notes: as for B10
B16: MTRAP CTD phosphorylated at Thr-467 (peptide)
peptide: Biotin-YFLRKEKTEKVVQEE[pT]KEENFEVMFNDDALKGKDNKAMDEEEFWALE
notes: as for B10
B17: AMA1 CTD phosphorylated at Ser-610 (peptide)
peptide: Biotin-YKRKGNAEKYDKMDEPQDYGKSNSRNDEMLDPEASFWGEEKRASHTTPVLMEKPYY
modifications: not fully specified (residue 44)
notes: as for B10
B18: EBA175 CTD phosphorylated at T1483 and S1489 (peptide)
peptide: Biotin-KYQSSEGVMNENNENNFLFEVTDNLDKLSNMFNQQVQE[pT]NINDF[pS]EYHEDINDINFKK
notes: as for B10

Target: T1, P. falciparum aldolase
Test: BLI; competition: biotinylated AMA1 or RH4 CTD on streptavidin sensor, fixed aldolase (70 μM for AMA1, 20 μM for RH4) with increasing unlabelled MTRAP CTD peptide; Octet Red; duplicate
Settings: both partners purified

Q: How did the “percent reduction of aldolase binding to RH4 CTD at a 5-fold molar excess of MTRAP to aldolase” value turn out when YFLRKEKTEKVVQEETKEENFEVMFNDDALKGKDNKAMDEEEFWALE [unlabelled competitor MTRAP CTD peptide] was run?
A: 56%

Target: T1, P. falciparum aldolase
Test: BLI
Settings: both partners purified

Q: With B1 as the molecule, how does the Kd read?
A: 130 µM

Q: With B2 as the molecule, how does the Kd read?
A: 13.8 µM

Q: How did the Kd turn out when B3 was run?
A: 17 µM

Q: B4 was tested. Which Kd did it give?
A: 83 µM

Q: B5 was tested. Which Kd did it give?
A: 3.5 µM

Q: How did the Kd turn out when B6 was run?
A: 125 µM

Q: How did the Kd turn out when B7 was run?
A: 53 µM

Q: With B8 as the molecule, how does the Kd read?
A: 5 µM

Q: B9 was tested. Which Kd did it give?
A: 96 µM

Target: T1, P. falciparum aldolase
Test: BLI
Settings: both partners purified
Remark: another data set of the same source

Q: With B10 as the molecule, how does the Kd read?
A: 4.7 µM

Q: Which Kd does the source give for B11 here?
A: 35 µM

Q: How did the Kd turn out when B12 was run?
A: 2.5 µM

Q: Which Kd does the source give for B13 here?
A: 11 µM

Q: Which Kd does the source give for B14 here?
A: 3.5 µM

Q: How did the Kd turn out when B15 was run?
A: 0.9 µM

Q: B16 was tested. Which Kd did it give?
A: 1.9 µM

Q: B17 was tested. Which Kd did it give?
A: 44 µM

Q: For B18, which Kd is on record?
A: 38 µM

Target: T2, P. falciparum aldolase (Plasmodium falciparum, UniProt Q7KQL9)
T2 construct: made in house
Test: biochemical
Assay type: binding
Settings: biolayer interferometry, Octet Red
Excerpt: CTDs of four classes of type 1 membrane protein (AMA1 and the TRAP, EBL and RH families) that are potential adhesins or host cell invasion proteins derived from apical organelles, and present in the merozoite plasma membrane during invasion, were examined for their ability to bind to aldolase using bio-layer interferometry. Streptavidin-coated biosensors were loaded with biotinylated synthetic peptides or recombinant proteins representing either the full length CTDs or shorter C-terminal sequences (Table 1) and titrated with increasing aldolase concentrations. This analysis enabled the calculation of a dissociation constant (Kd) for each pair of proteins as a measure of the strength of interaction between them.
The effect of the CTD phosphorylation on aldolase binding was investigated using biolayer interferometry using phosphorylated synthetic peptides or peptides phosphorylated in vitro (Table 3).
Protein interactions were analysed by biolayer interferometry using the Octet Red system (ForteBio) at 25°C in 96-well microplates, as described previously. All assays were performed in 100 mM Tris-HCl pH 8.0, according to the manufacturer’s instructions. A baseline was established over 1 min, and biotinylated samples were loaded onto streptavidin sensors for 1 min. The sensors were washed for 1 min and then incubated with aldolase at different concentrations (0.05–250 μM) for 1 min, followed by a dissociation phase over 5 min. The experiments were performed in duplicate or triplicate depending on the experiment. The data were analysed as described previously.

Q: For `CC[C@H](C)[C@H](NC(=O)[C@H](Cc1c[nH]cn1)NC(=O)[C@H](Cc1ccc(O)cc1)NC(=O)CCCC[C@@H]1SC[C@@H]2NC(=O)N[C@@H]21)C(=O)N[C@@H](Cc1ccccc1)C(=O)N[C@@H](Cc1ccc(O)cc1)C(=O)N[C@@H](CCCCN)C(=O)N[C@@H](CCCNC(=N)N)C(=O)N[C@@H](CCCCN)C(=O)NCC(=O)N[C@@H](C)C(=O)N[C@@H](CCC(=O)O)C(=O)N[C@@H](CCCCN)C(=O)N[C@@H](CCC(=O)O)C(=O)N[C@@H](CC(C)C)C(=O)N[C@@H](Cc1ccc(O)cc1)C(=O)N[C@@H](CCC(=O)O)C(=O)N[C@@H](CC(N)=O)C(=O)N[C@H](C(=O)N[C@@H](C)C(=O)NCC(=O)N[C@@H](CCCNC(=N)N)C(=O)N[C@@H](Cc1ccc(O)cc1)C(=O)N[C@@H](CCSC)C(=O)N[C@@H](Cc1ccc(O)cc1)C(=O)N[C@@H](CC(=O)O)C(=O)O)C(C)C` [PTRAMP, reference compound] (Biotin-YHIFYKRKGAEKELYENVAGRYMYD-OH; C-terminus assumed), which “binding to aldolase (in words)” value is on record?
A: does not bind

Q: `CSCC[C@H](NC(=O)[C@H](CC(C)C)NC(=O)[C@@H](NC(=O)CCCC[C@@H]1SC[C@@H]2NC(=O)N[C@@H]21)C(C)C)C(=O)N[C@@H](CCC(=O)O)C(=O)N[C@@H](CCCCN)C(=O)N1CCC[C@H]1C(=O)N[C@@H](Cc1ccc(O)cc1)C(=O)N[C@@H](Cc1ccc(O)cc1)C(=O)O` [AMA1 555–562] (Biotin-VLMEKPYY-OH; C-terminus assumed) was tested. Which “binding to aldolase (in words)” value did it give?
A: did not bind

Q: How did the “binding to aldolase (in words)” value turn out when “Biotin-KTNSGDNNSNEINEAFEPNDDVLFKEKDEIIEITFNDNDSTI [RH2A]” was run?
A: did not bind at all

Same assay, conditions: phosphorylated versus unmodified CTD, from Kd values of Table 3

Q: For “Biotin-DRSNKDECDFDMCEEVNNNDHLSNYADKEEIIEIVFDENEEKYF (cysteines drawn unpaired) [RH2B]”, which “increase in affinity for aldolase following phosphorylation” value is on record?
A: 11 fold

Same assay, conditions: same assay as the Kd column; symbol * = no binding

Q: With `CSCC[C@H](NC(=O)[C@H](CC(C)C)NC(=O)[C@@H](NC(=O)CCCC[C@@H]1SC[C@@H]2NC(=O)N[C@@H]21)C(C)C)C(=O)N[C@@H](CCC(=O)O)C(=O)N[C@@H](CCCCN)C(=O)N1CCC[C@H]1C(=O)N[C@@H](Cc1ccc(O)cc1)C(=O)N[C@@H](Cc1ccc(O)cc1)C(=O)O` [AMA1 555–562] (Biotin-VLMEKPYY-OH; C-terminus assumed) as the molecule, how does the Kd read?
A: > 250 µM

Q: “Biotin-KTNSGDNNSNEINEAFEPNDDVLFKEKDEIIEITFNDNDSTI [RH2A]” was tested. Which Kd did it give?
A: > 250 µM

Target: RH1 CTD phosphorylated at S2950 or T2951 (P. falciparum)
Test: BLI
Settings: not given

Q: “P. falciparum aldolase (from UniProt Q7KQL9 1-369) (enzyme)” was tested. Which Kd did it give?
A: 2500 nM

Target: RH1 full length CTD (2921–2971) (P. falciparum)
Test: BLI
Settings: not given

Q: For “P. falciparum aldolase (from UniProt Q7KQL9 1-369) (enzyme)”, which Kd is on record?
A: 6.1 µM
